B1: RUN and FYVE domain-containing protein 1, residues 639 to 698; numbered along this chain, Q96T51 (parent)
chain: WLKDDEATHCRQCEKEFSISRRKHHCRNCGHIFCNTCSSNELALPSYPKPVRVCDSCHTL

Variants of: B1
Experiment: abundance fitness (aPCA) (normalised: wild type 0, dead -1); higher = more abundant; growth selection in yeast, the domain comes from the species named
Details: Homo sapiens

Abundance fitness of substitutions, site by site:
C10: Y -0.72; N -0.837; E -0.687; R -0.843; W -0.519; L -0.74; K -0.766; A -0.765; G -0.849; F -0.776; I -0.636; T -0.711; H -0.665; M -1.02; V -0.815; Q -0.678
D4: R -0.22; Y -0.18; N -0.018; I -0.241; C -0.971; K -0.068; V -0.351; P -0.494; L -0.298; T -0.27; H -0.192; G -0.228; A -0.466; S -0.158; F -0.234; E -0.156
R11: M 0.226; P -0.03; W 0.224; S 0.203; F -0.023; Q 0.05; G 0.127; A 0.227; T 0.044; D 0.057; H 0.044; Y 0.121; K 0.229; L 0.161; E 0.079; V -0.155; N -0.093
S18: L -0.423; D 0.06; T 0.05; Y -0.501; V -0.247; F -0.352; A -0.33; M -0.23; C 0.007; P -0.398; I -0.144; G -0.049; N -0.12; K -0.087; W -0.322; Q -0.256; H -0.408
S20: K -0.018; F -0.009; A 0.068; C -0.369; Y -0.195; T 0.069; E 0.197; D 0.13; H -0.108; I 0.028; Q 0.138; P -0.061; V -0.031; W 0.005; L -0.147
K15: C -0.196; A -0.527; N -0.058; P -0.999; H -0.074; G -0.088; T -0.154; I -0.143; Y -0.191; L -0.188; E -0.009; M -0.373; W -0.449; R -0.053; Q -0.082; V -0.359; S -0.098; D -0.233
D5: T -0.178; E -0.134; N 0.004; I -0.341; G -0.388; S -0.209; C -0.17; R -0.57; Y -0.258; L -0.547; H -0.426; P -0.537; A -0.21; Q -0.708; M 0.058; K -0.069; W -0.531; V -0.313
L2: Y 0.058; M -0.074; K 0.102; Q -0.023; T -0.02; V -0.044; W -0.329; R -0.393; P -1.13
E14: N -0.459; C -0.243; V -0.41; Q -0.113; L -0.377; F -0.204; P -0.856; K -0.439; I -0.167; M -0.212; R -0.431; D -0.083; G 0.006; H -0.127; S -0.168; W -0.24; A -0.08
F17: E -0.68; T -0.574; I -0.397; L -0.218; Y -0.769; Q -0.765; G -0.793; R -0.677; N -1.02; A -0.927; D -0.467; S -0.709; W -0.381; M -0.571; K -0.676; P -0.624; V -0.662; H -0.65
I19: F -0.136; D -0.014; T 0.095; C -1.15; L -0.038; K 0.073; V -0.102; Q 0.094; A -0.177; S -0.048; R -0.065; E 0.228; W -0.846; N -0.001; P -0.034; M -0.006; H -0.036; Y -0.341
T8: P -0.187; R -0.009; A -0.204; Q 0.008; I 0.047; E -0.085; M 0.022; G -0.062; L -0.009; D -0.087; H 0.025; S -0.016; C -0.325; V -0.269; K -0.026; Y -0.349
C13: W -0.82; E -0.738; G -0.684; M -0.943; L -0.913; F -0.707; P -0.984; H -0.975; D -0.874; N -0.712; V -0.951; Q -0.806; R -0.802; I -1.01; S -0.899; T -0.83; K -1.07
K3: G -0.515; C -1.03; M -0.431; D -0.539; P -0.906; L -0.607; S -0.55; N -0.133; E -0.475; A -0.602; Q -0.664; F -1.14; Y -0.529; V -0.687; R -0.618; I -0.393; H -0.42
H9: K -0.09; Q -0.248; I -0.216; Y -0.357; W -0.532; S -0.115; F -0.135; R -0.23; M -0.108; T -0.221; G -0.22; E -0.418; N -0.046; A 0.136; P -0.822
E6: K 0.126; P -0.236; S -0.165; Y -0.191; G 0.001; I 0.029; M -0.316; D -0.078; V -0.254; Q -0.203; H -0.185; R -0.336; A -0.085; W -0.388; L -0.425; C 0.009; N -0.121; T -0.014; F -0.295
Q12: A -0.171; W -0.69; F -0.458; Y -0.279; T -0.565; G 0.208; N -0.106; K -0.449; M -0.27; P -1.17; S -0.412; R -0.303; L -0.298; E -0.225; D -0.051; H -0.27; C 0.039; I -0.068
E16: P -0.195; N -0.029; F -0.245; Y -0.349; G -0.18; S -0.179; Q -0.329; D -0.123; V -0.282; K -0.387; C -0.29; H -0.089; W -0.638; T -0.339; A -0.286; L -0.314; R -0.412
A7: N -0.204; E 0.017; W -0.154; V -0.108; Y -0.092; K -0.384; G -0.09; H -0.176; I -0.008; L -0.234; C -0.082; P -0.114; F -0.028; M -0.302; S 0.092; D -0.039; T 0.014; Q 0.04; R -0.031
R21: L -0.195; K -0.184; S -0.355; F -0.265; A -0.04; V -0.054; P -0.503; C -1.14; M -0.239; N -0.711; Q -0.069; H -0.434; G -0.278; T 0.13; W -1.06; D -1.25; I -0.227
